Measured values reported in doi:10.1101/2020.06.16.154534 (bioRxiv, 2020).
Like-named read-outs stand apart in the source and are kept apart here.

Key:
SAXS [1] = molecular target: the molecule itself; experiment: SAXS
SAXS [2] = molecular target: the molecule itself; experiment: SAXS; remark: listed apart in the source

B1: apo-bacterioferritin from E. coli (core-free, heme B bound) (natural protein)
chain: not shown
SAXS [1]
  stoichiometry N: 2
SAXS [2]
  stoichiometry N: 24
